From US20240158512A1 (TRUEBINDING, published 2024)

Columns and labels:
[1] = target: T1, Galectin-3 (UniProt P17931 1-250, limits assumed); test: BLI binding activity; DP stored at 25° C. for 3 months
T1 construct: also called Gal3; GAL3

[2] = target: T1, Galectin-3; test: ELISA biological activity (blocking ELISA, blocked partner not named); 20 mg/mL DP, time 0; Time 0 (control), 20 mg/mL DP
[3] = target: T1, Galectin-3; test: BLI binding activity; DP stored at 25° C. for 1 month
[4] = target: T1, Galectin-3; test: ELISA biological activity (blocking ELISA, blocked partner not named); DP stored at 5° C. for 9 months
[5] = target: T1, Galectin-3; test: ELISA biological activity (blocking ELISA, blocked partner not named); DP stored at 5° C. for 18 months
[6] = target: T1, Galectin-3; test: BLI binding activity; DP stored at 5° C. for 3 months
[7] = target: T1, Galectin-3; test: BLI binding activity; DP stored at 25° C. for 6 months
[8] = target: T1, Galectin-3; test: BLI binding activity; DP stored at 5° C. for 9 months
[9] = target: T1, Galectin-3; test: ELISA biological activity (blocking ELISA, blocked partner not named); DP stored at 25° C. for 6 months
[10] = target: T1, Galectin-3; test: ELISA biological activity (blocking ELISA, blocked partner not named); DP stored at 5° C. for 12 months
[11] = target: T1, Galectin-3; test: ELISA biological activity (blocking ELISA, blocked partner not named); DP stored at 5° C. for 3 months
[12] = target: T1, Galectin-3; test: BLI binding activity; DP stored at 5° C. for 18 months
[13] = target: T1, Galectin-3; test: BLI binding activity; DP stored at 5° C. for 6 months
[14] = target: T1, Galectin-3; test: ELISA biological activity (blocking ELISA, blocked partner not named); DP stored at 25° C. for 1 month
[15] = target: T1, Galectin-3; test: ELISA biological activity (blocking ELISA, blocked partner not named); DP stored at 25° C. for 3 months
[16] = target: T1, Galectin-3; test: ELISA biological activity (blocking ELISA, blocked partner not named); DP stored at 5° C. for 1 month
[17] = target: T1, Galectin-3; test: BLI binding activity; DP stored at 5° C. for 12 months
[18] = target: T1, Galectin-3; test: BLI binding activity; DP stored at 5° C. for 1 month
[19] = target: T1, Galectin-3; test: ELISA biological activity (blocking ELISA, blocked partner not named); DP stored at 5° C. for 6 months

T1 sequence (P17931 whole entry): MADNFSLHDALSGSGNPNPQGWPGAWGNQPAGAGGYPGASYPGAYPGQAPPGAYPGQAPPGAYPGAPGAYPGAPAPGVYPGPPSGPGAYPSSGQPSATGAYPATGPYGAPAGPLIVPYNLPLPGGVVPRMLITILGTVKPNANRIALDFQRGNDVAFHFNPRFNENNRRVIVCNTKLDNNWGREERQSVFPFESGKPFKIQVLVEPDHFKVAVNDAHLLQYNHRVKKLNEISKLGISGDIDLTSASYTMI

Kd [1]: 3.1 nM
IC50 [2]: 2.5 µg/mL
Kd [3]: 2.5 nM
IC50 [4]: 1.2 µg/mL
IC50 [5]: 1.8 µg/mL
Kd [6]: 3 nM
Kd [7]: 3.7 nM
Kd [8]: 2.5 nM
IC50 [9]: 1.5 µg/mL
IC50 [10]: 1.5 µg/mL
IC50 [11]: 1.5 µg/mL
Kd [12]: 2 nM
Kd [13]: 3.5 nM
IC50 [14]: 1.8 µg/mL
IC50 [15]: 1.5 µg/mL
IC50 [16]: 1.8 µg/mL
Kd [17]: 3.1 nM
Kd [18]: 2.5 nM
IC50 [19]: 1.5 µg/mL
B1: TB006 (antibody, human IgG4 S228P, kappa, V domains shown)
VH: QVQLVQSGAEVKKPGASVKVSCKASGYSFTNYYMHWVRQAPGQRLEWMGWIYPGSGNTNYNEKFQGRVTITADTSASTAYMELSSLRSEDTAVYYCSTAPGGFDVWGQGTTVTVSS
VL: DIVMTQTPLSLSVTPGQPASISCKSSKSLLHSDGITYLYWYLQKPGQSPQLLIYRMSNLASGVPDRFSGSGSGTDFTLKISRVEAEDVGVYYCAQMLEFPLTFGQGTKLEIKR
notes: Tested as drug product at 20 mg/mL in 20 mM L-histidine, 5 mM methionine, 100 mM NaCl, 0.02% polysorbate-80, pH 5.8; also called 4A11.H3L1; IMT006a
